Results: patent publication US9266930
Read-outs that look alike come from different tables or passages of the source.

Tests used:
HLA-A*3101 (human) [1] = biological target: HLA-A*3101 (human)
HLA-A*6801 (human) [2] = biological target: HLA-A*6801 (human)
[3] = biological target: T1, HLA-DR1 (DRB1*0101) (human)
T1 chain 1: not shown
T1 chain 2: not shown

[4] = biological target: T2, HLA-DR6w19 (DRB1*1302) (human)
T2 chain 1: not shown
T2 chain 2: not shown

[5] = biological target: T3, HLA-DR3 (DRB1*0301) (human)
T3 chain 1: not shown
T3 chain 2: not shown

HLA-A*0301 (human) [6] = biological target: HLA-A*0301 (human)
HLA-A*1101 (human) [7] = biological target: HLA-A*1101 (human)
HLA-A*0301 (human) [8] = biological target: HLA-A*0301 (human); remark: listed apart in the source
HLA-A*1101 (Human) [9] = biological target: HLA-A*1101 (Human)
HLA-A*0301 (human) [10] = biological target: HLA-A*0301 (human); remark: listed apart in the source
HLA-A*0301 (human) [11] = biological target: HLA-A*0301 (human); remark: listed apart in the source
HLA-A*0301 (human) [12] = test: competition with 125I-labeled probe peptide for purified HLA, gel filtration
HLA-A*3101 (human) [13] = test: as above
HLA-A*1101 (human) [14] = test: as above
HLA-A*3301 (human) = test: as above
HLA-A*6801 (human) [15] = test: as above

B1: … (P. falciparum CSP, position 335) (peptide)
peptide: NANANNAVK
modifications: not checked
B1 gave a binding affinity ratio (IC50 of standard peptide / IC50 of test peptide) (HLA-A*3101 (human) [1]) of 0.0006 and a binding affinity ratio (IC50 of standard peptide / IC50 of test peptide) (HLA-A*6801 (human) [2]) of 0.021.

B2: 35.0172 … (Pf SSP2 211) (peptide)
peptide: KCNLYADSAWENVKN
modifications: not checked
B2 showed an IC50 [3] of 23.4 µM, an IC50 [4] of 11.1 µM and an IC50 [5] of 0.857 µM.

B3: … (P. falciparum SSP2, position 406, 9 amino acids) (peptide)
peptide: NLPNDKSDR
modifications: not checked
With B3 the binding affinity ratio (relative to standard peptide) (HLA-A*0301 (human) [6]) was 0.0005 and the binding affinity ratio (relative to standard peptide) (HLA-A*1101 (human) [7]) was 0.0002.

B4: … (P. falciparum EXP, position 42) (peptide)
peptide: GSGEPLIDVH
modifications: not checked
With B4 the binding affinity ratio (IC50 of standard peptide / IC50 of test peptide) (HLA-A*0301 (human) [8]) was 0.0005 and the binding affinity ratio (IC50 of standard peptide / IC50 of test peptide) (HLA-A*1101 (Human) [9]) was 0.0002.

B5: … (P. falciparum EXP, position 9) (peptide)
peptide: LALFFIIFNK
modifications: not checked
B5 was tested, and the binding affinity ratio (IC50 of standard peptide / IC50 of test peptide) (HLA-A*0301 (human) [10]) was 0.014.

B6: … (P. falciparum SSP2 position 504, 9-mer, A3 motif peptide) (peptide)
peptide: IAGGLALLA
modifications: not checked
B6 showed a binding affinity ratio (IC50 of standard peptide / IC50 of test peptide) (HLA-A*0301 (human) [11]) of 0.0002.

B7: … (P. falciparum SSP2, position 522) (peptide)
peptide: VPGAATPYA
modifications: not checked
B7 gave a binding affinity ratio (IC50 of standard peptide / IC50 of test peptide) (HLA-B*0702 (Human)) of 0.0001.

B8: … (P. falciparum EXP, position 9, 10 amino acids) (peptide)
peptide: LALFFIIFNK
modifications: not checked
B8 was tested, and the binding affinity ratio (relative to standard peptide) (HLA-A*0301 (human) [12]) was 0.014, the binding affinity ratio (relative to standard peptide) (HLA-A*3101 (human) [13]) was 0.0072 and the binding affinity ratio (relative to standard peptide) (HLA-A*1101 (human) [14]) was 0.053. The binding affinity ratio (relative to standard peptide) (HLA-A*3301 (human)) was 0.0076 and the binding affinity ratio (relative to standard peptide) (HLA-A*6801 (human) [15]) was 0.0039.
